# Experimental data from patent publication US20100196267A1.
# Experiments:
# HLA-DR (human) [1] = assay: indirect flow cytometry on Namalwa cells, FITC-GAM 2nd Ab (none 2.91); control antibody
# [2] = molecular target: antigen on dog lymphoma cells recognised by L243 and hL243 (dog); assay: flow cytometry on dog lymphoma aspirate, murine MAbs (none 3.85); control antibody
# [3] = molecular target: antigen on dog lymphoma cells recognised by L243 and hL243 (dog); assay: flow cytometry on dog lymphoma aspirate, murine MAbs (none 3.37); control antibody
# [4] = molecular target: CD74 on dog lymphoma cells (dog); assay: flow cytometry on dog lymphoma aspirate, murine MAbs (none 3.85)
# [5] = molecular target: CD74 on dog lymphoma cells (dog); assay: flow cytometry on dog lymphoma aspirate, murine MAbs (none 3.37)
# CD74 (human) [6] = molecular target: CD74 (human) (UniProt P04233); assay: indirect flow cytometry on Namalwa cells, FITC-GAM 2nd Ab (none 2.91)
# [7] = molecular target: CD22 on dog lymphoma cells (dog); assay: flow cytometry on dog lymphoma aspirate, murine MAbs (none 3.85)
# [8] = molecular target: CD22 on dog lymphoma cells (dog); assay: flow cytometry on dog lymphoma aspirate, murine MAbs (none 3.37)
# CD22 (human) = CD22 (human) (UniProt P20273); assay: indirect flow cytometry on Namalwa cells, FITC-GAM 2nd Ab (none 2.91)
# HLA-DR (human) [9] = assay: indirect flow cytometry on Namalwa cells, FITC-GAM 2nd Ab (none 2.91); irrelevant antibody
# [10] = molecular target: Fcγ receptors on effector cells; assay: cell-based or functional assay
# CD74 (human) [11] = molecular target: CD74 (human) (UniProt P04233); assay: indirect FACS, FITC-GAH Fc 2nd Ab, Ramos cells (none 3.1); number split over two cells
# CD74 (human) [12] = molecular target: CD74 (human) (UniProt P04233); assay: indirect flow cytometry on Namalwa cells, FITC-GAH 2nd Ab (none 2.52)
# CD74 (human) [13] = molecular target: CD74 (human) (UniProt P04233); assay: indirect FACS, FITC-GAH Fc 2nd Ab, Namalwa cells (none 2.5); number split over two cells
# CD74 (human) [14] = molecular target: CD74 (human) (UniProt P04233); assay: indirect flow cytometry, FITC-GAH Fc 2nd Ab, Raji cells (none 6.9)
# CD74 (human) [15] = molecular target: CD74 (human) (UniProt P04233); assay: indirect FACS, FITC-GAH Fc 2nd Ab, Raji cells (none 6.8); number split over two cells
# [16] = molecular target: CD74 on dog lymphoma cells (dog); assay: flow cytometry on dog lymphoma aspirate, humanized MAbs (none 3.24)
# CD74 (human) [17] = molecular target: CD74 (human) (UniProt P04233); assay: indirect FACS, FITC-GAH Fc 2nd Ab, SU-DHL-6 cells (none 4.6); number split over two cells
# CD74 (human) [18] = molecular target: CD74 (human) (UniProt P04233); assay: indirect flow cytometry, FITC-GAH Fc 2nd Ab, Namalwa cells (none 2.6)
# CD74 (human) [19] = molecular target: CD74 (human) (UniProt P04233); assay: indirect flow cytometry, FITC-GAH Fc 2nd Ab, SU-DHL-6 cells (none 4.6)
# CD74 (human) [20] = molecular target: CD74 (human) (UniProt P04233); assay: indirect FACS, FITC-GAH Fc 2nd Ab, Daudi cells (none 3.1); number split over two cells
# CD74 (human) [21] = molecular target: CD74 (human) (UniProt P04233); assay: indirect FACS, FITC-GAH Fc 2nd Ab, WSU-FSCCL cells (none 2.6); number split over two cells
# CD74 (human) [22] = molecular target: CD74 (human) (UniProt P04233); assay: indirect flow cytometry, FITC-GAH Fc 2nd Ab, Daudi cells (none 3.2)
# [23] = molecular target: CD74 on dog lymphoma cells (dog); assay: flow cytometry on dog lymphoma aspirate, humanized MAbs (none 4.48)
# CD74 (human) [24] = molecular target: CD74 (human) (UniProt P04233); assay: indirect flow cytometry, FITC-GAH Fc 2nd Ab, Ramos cells (none 3.1)
# CD74 (human) [25] = molecular target: CD74 (human) (UniProt P04233); assay: indirect flow cytometry, FITC-GAH Fc 2nd Ab, WSU-FSCCL cells (none 2.7)
# CD74 (human) [26] = molecular target: CD74 (human) (UniProt P04233); assay: indirect flow cytometry, FITC-GAH Fc 2nd Ab, RL cells (none 2.4)
# [27] = molecular target: CD22 on dog lymphoma cells (dog); assay: flow cytometry on dog lymphoma aspirate, humanized MAbs (none 3.24)
# [28] = molecular target: CD22 on dog lymphoma cells (dog); assay: flow cytometry on dog lymphoma aspirate, humanized MAbs (none 4.48)
# HLA-DR (human) [29] = assay: indirect flow cytometry on Namalwa cells, FITC-GAH 2nd Ab (none 2.52); irrelevant antibody
# [30] = molecular target: T1, CD20 on dog lymphoma cells (dog) (UniProt Q3C2E2); assay: flow cytometry on dog lymphoma aspirate, murine MAbs (none 3.85)
# T1 sequence (looked up): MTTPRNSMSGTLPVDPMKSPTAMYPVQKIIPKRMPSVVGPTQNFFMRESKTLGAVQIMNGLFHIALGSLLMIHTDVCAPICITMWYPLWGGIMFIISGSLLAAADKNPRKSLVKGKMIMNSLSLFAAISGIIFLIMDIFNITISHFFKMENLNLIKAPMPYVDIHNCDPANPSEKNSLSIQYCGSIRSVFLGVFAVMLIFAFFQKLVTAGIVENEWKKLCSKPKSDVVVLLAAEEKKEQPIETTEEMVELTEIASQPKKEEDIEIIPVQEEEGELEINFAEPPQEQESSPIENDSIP
# [31] = molecular target: T1, CD20 on dog lymphoma cells (dog); assay: flow cytometry on dog lymphoma aspirate, murine MAbs (none 3.37)
# CD20 (human) = molecular target: T2, CD20 (human) (UniProt P11836); assay: indirect flow cytometry on Namalwa cells, FITC-GAM 2nd Ab (none 2.91)
# T2 sequence (looked up): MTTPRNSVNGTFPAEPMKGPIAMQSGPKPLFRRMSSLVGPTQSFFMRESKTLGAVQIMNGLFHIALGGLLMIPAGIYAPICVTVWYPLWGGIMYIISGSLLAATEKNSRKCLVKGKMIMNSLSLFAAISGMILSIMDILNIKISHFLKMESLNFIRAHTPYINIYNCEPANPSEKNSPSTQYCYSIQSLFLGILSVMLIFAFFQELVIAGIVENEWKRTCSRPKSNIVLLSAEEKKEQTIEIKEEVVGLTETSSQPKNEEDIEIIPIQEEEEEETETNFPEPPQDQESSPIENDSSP
# Sequence of CD74 (human) (P04233 whole entry): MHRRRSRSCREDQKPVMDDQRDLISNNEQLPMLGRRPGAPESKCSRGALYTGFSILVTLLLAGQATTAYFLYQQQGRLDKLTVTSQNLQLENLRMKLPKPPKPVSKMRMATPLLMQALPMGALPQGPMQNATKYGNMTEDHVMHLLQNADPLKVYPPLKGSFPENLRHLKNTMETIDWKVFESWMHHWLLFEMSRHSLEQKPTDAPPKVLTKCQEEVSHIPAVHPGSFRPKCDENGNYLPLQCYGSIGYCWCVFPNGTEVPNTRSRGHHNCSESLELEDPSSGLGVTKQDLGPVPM
substance,measurement,setting,value
Ag8 (antibody),GEO MEAN Fluorescence,HLA-DR (human) [1],3.64
same,%,[2],2.81%
same,Mean FL,[3],3.04
LL1 (murine) (antibody),%,[4],6.69%
same,Mean FL,[5],4.01
same,GEO MEAN Fluorescence,CD74 (human) [6],17.3
LL2 (murine) (antibody),%,[7],5.05%
same,Mean FL,[8],3.73
same,GEO MEAN Fluorescence,CD22 (human),10.5
RS7 (murine) (antibody),GEO MEAN Fluorescence,HLA-DR (human) [9],3.39
hL243γ1 (antibody),"ADCC on Daudi cells, specific lysis corrected for the effect on effector cells (5 µg/ml, effector:target 50:1, 4 h)",[10],48%
hL243γ4P (antibody),"ADCC on Daudi cells, specific lysis corrected for the effect on effector cells (5 µg/ml, effector:target 50:1, 4 h)",[10],12%
hLL1 (antibody),Geometric Mean Fluorescence,CD74 (human) [11],23.2
same,GEO MEAN Fluorescence,CD74 (human) [12],10.1
same,Geometric Mean Fluorescence,CD74 (human) [13],7.81
same,Geometric Mean Fluorescence,CD74 (human) [14],95.1
same,Geometric Mean Fluorescence,CD74 (human) [15],95.1
same,Mean FL,[16],3.33
same,Geometric Mean Fluorescence,CD74 (human) [17],17.3
same,Geometric Mean Fluorescence,CD74 (human) [18],7.8
same,Geometric Mean Fluorescence,CD74 (human) [19],17.3
same,Geometric Mean Fluorescence,CD74 (human) [20],48.8
same,Geometric Mean Fluorescence,CD74 (human) [21],8.66
same,Geometric Mean Fluorescence,CD74 (human) [22],48.8
same,%,[23],4.71%
same,Geometric Mean Fluorescence,CD74 (human) [24],23.3
same,Geometric Mean Fluorescence,CD74 (human) [25],8.7
same,Geometric Mean Fluorescence,CD74 (human) [26],7.9
hLL2 (antibody),Mean FL,[27],3.37
same,%,[28],4.85%
hRS7 (antibody),GEO MEAN Fluorescence,HLA-DR (human) [29],2.47
m2B8 (antibody),%,[30],2.61%
same,Mean FL,[31],3.11
same,GEO MEAN Fluorescence,CD20 (human),6.16
